Data taken from US20160009821A1 (TDW GROUP, published 2016).

Target: T1, Human argininosuccinate synthase (endogenous, in human tissues and human cancer cell lines) (human, UniProt P00966 1-412)
T1 construct: Endogenous protein in formalin-fixed, paraffin-embedded human tissue and cell line sections, with cytoplasmic staining; also called ASS; ASS1
T1 sequence: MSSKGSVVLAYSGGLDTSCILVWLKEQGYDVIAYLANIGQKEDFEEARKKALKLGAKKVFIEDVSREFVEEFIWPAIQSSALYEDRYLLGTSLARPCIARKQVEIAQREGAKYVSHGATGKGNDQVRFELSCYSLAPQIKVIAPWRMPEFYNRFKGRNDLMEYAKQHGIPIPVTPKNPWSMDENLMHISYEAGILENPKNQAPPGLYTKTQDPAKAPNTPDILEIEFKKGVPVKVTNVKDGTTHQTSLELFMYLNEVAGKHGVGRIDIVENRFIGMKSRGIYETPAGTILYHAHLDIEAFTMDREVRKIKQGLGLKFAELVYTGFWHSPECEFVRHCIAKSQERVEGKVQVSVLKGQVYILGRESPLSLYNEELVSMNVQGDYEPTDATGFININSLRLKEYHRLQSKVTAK
Test: immunohistochemistry on formalin-fixed, paraffin-embedded clinical samples
Procedure: Formalin-fixed, paraffin-embedded specimens were sectioned at 4-5 μm and mounted on positively charged slides. Slides were air dried and then placed in a 60° C. oven for 60 minutes. Slides were stained using the Leica Bond III instrument. Paraffin was removed from the slides using the standard Leica Bond dewax protocol. The tissue was antigen retrieved with either Bond ER1 for 5 or Bond ER2 for 20 minutes.
Mouse anti-argininosuccinate synthase monoclonal antibody was applied to the slide at a concentration of 0.625 μg/mL and incubated for 15 min or 0.4 μg/mL and incubated for 30 minutes. The Leica Bond Polymer Refine Detection kit was used to visualize the staining—post primary for 8 minutes and polymer for 8 minutes. The slides were then treated with Peroxide Block for five minutes followed by Mixed DAB Refine for ten minutes. Stained sections were counterstained with hematoxylin for […] The slides were then dehydrated and cover-slipped.

binding result: binds
B1: Mouse anti-argininosuccinate synthase monoclonal antibody used for immunohistochemistry in Example 2 (antibody, V domains shown)
VH: QIQLVQSGPELKKPGETVKISCKTSGYTFTDYSIHWVKQAPGKGLTWMGWINTETGEPTYADDFKGRFALSLETSASTAYLQLKNLRNEDTATYFCGSSYSYWGQGTLVTVSS
VL: DVVMTQTPLSLPVSLGDQASISCRSSQSLENSNGKTYLNWFLQKPGQSPQLLIYRVSNRFSGVPDRFSGSGSGTEFTLKISRVEAEDLGVYFCLQVKHVPWTFGGGTKLEIK
